Test: yeast display, Sf9 membrane polyspecificity reagent, FACS + sequencing; frameworks hold sequencing errors
Summary of the method: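 A synthetic nanobody library was expressed on Saccharomyces cerevisiae BJ5465 by galactose induction for 36–48 hours. The library was stained for 1 hour at 4 °C with 10% biotinylated, detergent-solubilized Sf9 membrane reagent and enriched with streptavidin microbeads before FACS. Low and high (top ~1%) gates were set on anti-HA fluorescence for expression and streptavidin fluorescence for reagent binding, and each polyreactivity label reflects the gate of origin.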

Sequence: QVQLVESGGGLVQAGGSLRLSCAASGSIFYANDMGWYRQAPGKERELVADITSDSTYYADSVKGRFTISRDNAKNTVYLQMNSLKPEDTAVYYCAADVYGVHAPQSDYWTKYDYWGQGTQVTVSS
- polyreactivity (PSR sort gate): low polyreactivity

Sequence: QVQLVESGGGLVQAGGSLRLSCAASGSIFYAYAMGWYRQAPGKEREFVAVISYSGGSTYYADSVKGRFTISRDNAKNTVYLQMYSLKPEDTAVYYCAARYRRPYSYYYWGQGTQVTVSS
- polyreactivity (PSR sort gate): high polyreactivity

Sequence: QVQLVESGGGLVQAGGSLRLSCAASGSIFYAYGMGWYRQAPGKERELVAAISSRGGSTHYADSVKGRFTISRDNAKNTVYLQMNSLKPEDTAVYYCAARHAYPYRRGDFNYWGQGTQVTVSS
- polyreactivity (PSR sort gate): high polyreactivity

Sequence: QVQLVESGGGLVQAGGSLRLSCAASGSIFYAYVMGWYRQAPGKERELVAAIDIGGGTYADSVKGRFTISRDNAKNTVYLQMNMLKPEDTAVYYCAKAGYFSRGVYVYYLDEYDYWGQGSQVTVSS
- polyreactivity (PSR sort gate): high polyreactivity

Sequence: QVQLVESGGGLVQAGGSLRLSCAASGSIFYDNALGWYRQAPGKERELVAAIDDSDRTYYADSVKGRFTISRDNAKNTVYLQMNSLKPEDTAVYYCARDRWKWHYGYDYWGQGTQVTVSS
- polyreactivity (PSR sort gate): low polyreactivity

Sequence: QVQLVESGGGLVQAGGSLRLSCAASGSIFYDNAMGWYRQAPGKERELVAAISGNDATTYYADSVKGRFTISRDNAKNTVYLQMNSLKPEDTAVYSCAADYVLNPWRTRYDYWGQGTQVTVSS
- polyreactivity (PSR sort gate): low polyreactivity

Sequence: QVQLVESGGGLVQAGGSLRLSCAASGSIFYDNAMGWYRQAPGKERELVASIRWSGDSTYYADSVKGRFTISRDNAKNTVYLQMNSLKPEDTAVYYCAADPVEPYFTAIAYDFWGQGTQVTVSS
- polyreactivity (PSR sort gate): low polyreactivity

Sequence: QVQLVESGGGLVQAGGSLRLSCAASGSIFYDYAMGWYRQAPGKERELVAAISSSGSSTYYADSVKGRFTISRDNAKNTVYLQMNSLKPEDTAVYYCAAYSRRQWKYDYWGQGTQVTVSS
- polyreactivity (PSR sort gate): high polyreactivity

Sequence: QVQLVESGGGLVQAGGSLRLSCAASGSIFYDYAMGWYSQEPGKERELVAAISSSGITYYADSVKGRFTISRDNAKTTVYLQMNSLKPEDTAVYYCNARSYLRDYDYWGQGTQVTVTS
- polyreactivity (PSR sort gate): high polyreactivity

Sequence: QVQLVESGGGLVQAGGSLRLSCAASGSIFYDYTMGWSRQAPGKERELVAAINSGGSTNYADSVKGRFTISRDNAKNTVYLQMNSLKPEDTAVYYCAAEPQFAFLDSRLWGSDYWGQGTQVTVSS
- polyreactivity (PSR sort gate): low polyreactivity

Sequence: QVQLVESGGGLVQAGGSLRLSCAASGSIFYENAMGWYRQAPGKERELVAAISRSGGSTYYADSVKGRFTISRDNAKNSVYLQMNSLKPEDTAVYYCAADVYVFIGDYWGQGTQVTVSS
- polyreactivity (PSR sort gate): low polyreactivity

Sequence: QVQLVESGGGLVQAGGSLRLSCAASGSIFYENVMGWYRQAPGKERELVAGISRSGGRTYYADSVKGRFTISRDNAKNTVYLQMNSLKPEDTAVYYCNAARVYLSEWGQGTQVTVSS
- polyreactivity (PSR sort gate): high polyreactivity

Sequence: QVQLVESGGGLVQAGGSLRLSCAASGSIFYFNAMGWYRQAPGKDRELVAAITYNGGSTRYADSVKGRFTISRDNAKNTVYLQMNSLKPEDTAVYYCAARAKYGPEDGYWGQGTQVTVSS
- polyreactivity (PSR sort gate): high polyreactivity

Sequence: QVQLVESGGGLVQAGGSLRLSCAASGSIFYFNAMGWYRQAPGKERELVAAINWRGDRTYYADSVKRRFTISRDNAKNTVYLQMNSLKPEDTAVYYCNAVRVHAYSTGEYGYWGQGTQVTVSS
- polyreactivity (PSR sort gate): high polyreactivity

Sequence: QVQLVESGGGLVQAGGSLRLSCAASGSIFYFNAMGWYRQAPGKERELVAGISARGGSTYYADSVKGRFTISRDNAKNTVYLQMNSLKPEDTAVYYCAAYGTTRSRKRGFAWWGYDYWGQGTQVTVSS
- polyreactivity (PSR sort gate): low polyreactivity

Sequence: QVQLVESGGGLVQAGGSLRLSCAASGSIFYFNAMGWYRQAPGKERELVARISGSSGRTYFADSVKGRFTISRDNAKNTVYLQMNSLKPEDTAVYYCAARYYTSATMDYWGQGTQVTVSS
- polyreactivity (PSR sort gate): high polyreactivity

Sequence: QVQLVESGGGLVQAGGSLRLSCAASGSIFYFNAMGWYRRAPGKERELVAGISARGGSTYYADSVKGRFTISRDHAKNTVYIQMNSLKPEDTAGYYCAAYGTTRSRKRAFAWWGYDYWGQGTQVTVSS
- polyreactivity (PSR sort gate): low polyreactivity

Sequence: QVQLVESGGGLVQAGGSLRLSCAASGSIFYFYAMGWYRQAPGKERELVAASRFTGGTTYYADSVKGRFTISRDNAKNTVYLQMNSLKPEDTAVYYCAKQTSYWSRGYDYWGQGTQVTVSS
- polyreactivity (PSR sort gate): low polyreactivity

Sequence: QVQLVESGGGLVQAGGSLRLSCAASGSIFYFYAMGWYRQAPGKERELVATITRGGSTYYADSVKGRFTISRDNAKNTVYLQMNSLKPEDTAVYYCAADGWYWTYIVEYWGQGTQVTVSS
- polyreactivity (PSR sort gate): high polyreactivity

Sequence: QVQLVESGGGLVQAGGSLRLSCAASGSIFYFYAMGWYRQAPGKERELVATITRRTGRTYYADSVKGRFTISRDNAKNTVYLQMNSLKPEDTAVYYCAARPKGPYGVWYNYWGQGTQVTVSS
- polyreactivity (PSR sort gate): high polyreactivity

Sequence: QVQLVESGGGLVQAGGSLRLSCAASGSIFYFYTMGWYRQAPGKEREFVAAINGIGGSTYYADSVKGRFTISRDNAKNTVYLQMNSLKPEDTAVYYCAADAPWFKRNARKYNFWGQGTQVTVSS
- polyreactivity (PSR sort gate): low polyreactivity

Sequence: QVQLVESGGGLVQAGGSLRLSCAASGSIFYGNAMGRYRQAPGKERELVAGITGYGSPTYYADSVKGRFTISRDNAKNTVYLQMNSLKPEVTAVYYCARLTRTSRGMYDYWGQGTQVTVSS
- polyreactivity (PSR sort gate): high polyreactivity

Sequence: QVQLVESGGGLVQAGGSLRLSCAASGSIFYGNAMGWDRQAPGNARELVAAISWNGGSTYYADSVKGRFTISRDNAKNTVYLQMNSLKPEDTAVYYSNADYYYEVDSWGQGTQVTVSS
- polyreactivity (PSR sort gate): low polyreactivity

Sequence: QVQLVESGGGLVQAGGSLRLSCAASGSIFYGNAMGWYRQAPGKERELVAAITRRGGRTYYADSVKGRFTISRDNAKNTVYLQMNSLKPEDTAVYYCNKDVGVAVEMGYWGQGTQVTVSS
- polyreactivity (PSR sort gate): high polyreactivity

Sequence: QVQLVESGGGLVQAGGSLRLSCAASGSIFYGNGMGWYRQAPGKERELVAVISVSGGRTFYADSVKGRFTISRDNAKNTVYLQMNSLKPEDTAVYYCATRTYRVDPEFGYWGQGTQVTVSS
- polyreactivity (PSR sort gate): high polyreactivity

Sequence: QVQLVESGGGLVQAGGSLRLSCAASGSIFYGNTMGWYRQAPGKERELVAAITWSGDSTYYADSVKGRFTISRDNAKNTVYLQMNSLKPEDTAVYYCNADQTGVYYAGEGNYWGQGTQVTVSS
- polyreactivity (PSR sort gate): low polyreactivity

Sequence: QVQLVESGGGLVQAGGSLRLSCAASGSIFYGYAMGWFRQAPGKEREFVADITSSGVSTYYADSVKGRFTISRDNAKNSVYLQINSLKPEDTAVYYCAKLRRYYSSVYHKFVFYTDDYWGQGSQVTVSS
- polyreactivity (PSR sort gate): high polyreactivity

Sequence: QVQLVESGGGLVQAGGSLRLSCAASGSIFYGYAMGWYRQAAGKERELVARITGSGGDTSYADSVKGRFTISRDNSKNTVYLQMNSLKPEDTALYYCNTDLYITYTLYTGSEYDYWGQGTQVTVSS
- polyreactivity (PSR sort gate): low polyreactivity

Sequence: QVQLVESGGGLVQAGGSLRLSCAASGSIFYGYAMGWYRQAPGKERELVAAIRYSDGSTYYADSVKGRFTISRDNAKNTVYLQMNSLKPEDTAVYYCAKKRRNYIGYYYWGQGTQVTVSS
- polyreactivity (PSR sort gate): high polyreactivity

Sequence: QVQLVESGGGLVQAGGSLRLSCAASGSIFYGYAMGWYRQAPGKERELVAAITWIDGSTYYADSVKGRFTISRDNAKNPVFLQLTSLKPEDTAVYYCAAGGYFYSFYYWGQGTQVTVSS
- polyreactivity (PSR sort gate): low polyreactivity

Sequence: QVQLVESGGGLVQAGGSLRLSCAASGSIFYGYAMGWYRQATGKERELVAAITSGGSTYYADSVKGRFTISRDNAKNTVYLQMNSLKPEDTAVYYCAADYPSRYWRIDYEYWGQGTQVTVSS
- polyreactivity (PSR sort gate): high polyreactivity

Sequence: QVQLVESGGGLVQAGGSLRLSCAASGSIFYGYTMGWSRQAPGKEREFVAAITGSGGSTYYADSVKGRFTISRDTPKNTVYVQMNTLKPEDTAVYYCAARRYVNRRYDYWGQGTQVTVSS
- polyreactivity (PSR sort gate): high polyreactivity

Sequence: QVQLVESGGGLVQAGGSLRLSCAASGSIFYGYTMGWYRQEPRKERELVAAIRKSGGSTNYADSVKGRFTISRDTAKNTVYLQMNSLKPEDTALYNCAADYYRRRGYYWGQGTQVTVSS
- polyreactivity (PSR sort gate): high polyreactivity

Sequence: QVQLVESGGGLVQAGGSLRLSCAASGSIFYHNAMGWYRQAPGKERELVAAISYRTGRTYYADSVKGRFTISRDNAKNTVYLQMNSLKPEDTAVYYCAAPYSWGQGTQVTVSS
- polyreactivity (PSR sort gate): high polyreactivity

Sequence: QVQLVESGGGLVQAGGSLRLSCAASGSIFYHNTMGWYIQAPGKERELITYYADSVKGRFTISRDNAKNTVYLQMNSLKPEDTAVYYCAASPVSRTGPGDYDFWGQGTQVTVSS
- polyreactivity (PSR sort gate): low polyreactivity

Sequence: QVQLVESGGGLVQAGGSLRLSCAASGSIFYHYAMGWSRQAPGKERELVAAITRSGGSTYYADSVKGRFTISRDNAKHTVYLQMNSLKPEDTAVYYCAKDPDSYNFLTSNWYDYWGQGTQVTVSS
- polyreactivity (PSR sort gate): low polyreactivity

Sequence: QVQLVESGGGLVQAGGSLRLSCAASGSIFYHYAMGWYRQAPGKERELVAAISQSGGGTYYADSVKGRFTISRDNAKNTVYLQMNSLKPEDTAVYYCNRLSKQKQEFDYWGQGTQVTVSS
- polyreactivity (PSR sort gate): high polyreactivity

Sequence: QVQLVESGGGLVQAGGSLRLSCAASGSIFYINAMGWYRQAPGKERELVAAINRGGSTNYADSVKGRFTISRDNAKNTVYLQMNSLKPEDTAVYYCAAYIYKTYRYYYWGQGTQVTVSS
- polyreactivity (PSR sort gate): high polyreactivity

Sequence: QVQLVESGGGLVQAGGSLRLSCAASGSIFYIYALGWYRQAPGKERELVAAISRSGGRTYYADSVKGRFTISRDNAKNTVYLQMNSLKPEDTGVYYCAARRYTAYDYWGQGTQVTVSS
- polyreactivity (PSR sort gate): high polyreactivity

Sequence: QVQLVESGGGLVQAGGSLRLSCAASGSIFYIYAMGWYRQAPGKERELVARISTGGSTHYADSVKGRFTISRDNAKNTVYLQMNSLKPEDTAVYYCDAPYWLWDGEGEYDYWGQGTQVTVSS
- polyreactivity (PSR sort gate): low polyreactivity

Sequence: QVQLVESGGGLVQAGGSLRLSCAASGSIFYIYAMGWYRQAPGKERELVATISHRGGSTYYADSVKGRFTISRDNAKNTVYLQMNSLKPEDTAVYYCAARSYYSWGRPLPSFNYWGQGTQVTVSS
- polyreactivity (PSR sort gate): high polyreactivity

Sequence: QVQLVESGGGLVQAGGSLRLSCAASGSIFYKNAMGWYRQAPGKERELVAAITYSGGSTYYADSVKGRFTISRDNAKNTVYLQMNSLKTEDTAVYYCAADIGVYGERREEEYDYWGQGTQVTVSS
- polyreactivity (PSR sort gate): low polyreactivity

Sequence: QVQLVESGGGLVQAGGSLRLSCAASGSIFYKNAMGWYRQAPGKERELVAVISWSGGSTSYADSVKGRFTISRDNAKNTVYLQMNSLKPEDTAVYYCAKEYFTDYLYEYDYWGQGTQVTVSS
- polyreactivity (PSR sort gate): low polyreactivity

Reference: the nanobody polyreactivity screen of Harvey et al. (2022)
